Laboratory results: patent publication US20180237536A1 (INNATE PHARMA, published 2018)

T1: human CD73 expressed at the cell surface (human, UniProt P21589 27-549)
T1 sequence: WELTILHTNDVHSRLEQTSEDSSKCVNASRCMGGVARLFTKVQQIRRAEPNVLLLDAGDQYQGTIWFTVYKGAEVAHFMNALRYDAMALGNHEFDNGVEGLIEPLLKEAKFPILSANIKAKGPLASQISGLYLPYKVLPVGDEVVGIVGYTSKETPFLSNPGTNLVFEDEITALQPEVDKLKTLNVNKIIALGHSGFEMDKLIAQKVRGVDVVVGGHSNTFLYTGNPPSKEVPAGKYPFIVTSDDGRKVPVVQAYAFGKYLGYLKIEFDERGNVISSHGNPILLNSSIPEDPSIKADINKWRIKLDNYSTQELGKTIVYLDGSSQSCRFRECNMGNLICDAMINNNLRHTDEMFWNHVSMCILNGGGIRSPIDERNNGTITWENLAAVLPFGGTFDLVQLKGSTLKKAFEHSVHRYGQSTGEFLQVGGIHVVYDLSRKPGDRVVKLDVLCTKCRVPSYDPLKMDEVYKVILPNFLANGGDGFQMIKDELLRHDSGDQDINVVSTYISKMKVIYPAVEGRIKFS

T2: recombinant human CD73-His extracellular domain protein (soluble dimer) (human, UniProt P21589 27-547)
T2 sequence: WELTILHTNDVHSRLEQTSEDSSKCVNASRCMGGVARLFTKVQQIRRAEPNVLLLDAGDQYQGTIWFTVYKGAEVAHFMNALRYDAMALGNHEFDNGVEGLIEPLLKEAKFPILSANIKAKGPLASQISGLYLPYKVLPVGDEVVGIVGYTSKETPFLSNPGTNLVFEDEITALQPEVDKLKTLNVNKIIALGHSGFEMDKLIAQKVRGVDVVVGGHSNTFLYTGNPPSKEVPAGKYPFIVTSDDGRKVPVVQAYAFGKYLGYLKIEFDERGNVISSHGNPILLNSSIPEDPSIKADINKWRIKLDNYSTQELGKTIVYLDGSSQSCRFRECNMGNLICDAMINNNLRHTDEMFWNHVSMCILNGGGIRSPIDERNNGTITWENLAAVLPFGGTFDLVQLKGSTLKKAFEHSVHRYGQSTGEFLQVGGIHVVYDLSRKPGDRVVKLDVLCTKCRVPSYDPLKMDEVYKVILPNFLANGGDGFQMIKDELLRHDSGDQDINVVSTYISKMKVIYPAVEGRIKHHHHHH

T3: human CD73 mutant 3 (human, UniProt P21589 27-549)
T3 construct: Expressed on transfected HEK293T cells
T3 chain: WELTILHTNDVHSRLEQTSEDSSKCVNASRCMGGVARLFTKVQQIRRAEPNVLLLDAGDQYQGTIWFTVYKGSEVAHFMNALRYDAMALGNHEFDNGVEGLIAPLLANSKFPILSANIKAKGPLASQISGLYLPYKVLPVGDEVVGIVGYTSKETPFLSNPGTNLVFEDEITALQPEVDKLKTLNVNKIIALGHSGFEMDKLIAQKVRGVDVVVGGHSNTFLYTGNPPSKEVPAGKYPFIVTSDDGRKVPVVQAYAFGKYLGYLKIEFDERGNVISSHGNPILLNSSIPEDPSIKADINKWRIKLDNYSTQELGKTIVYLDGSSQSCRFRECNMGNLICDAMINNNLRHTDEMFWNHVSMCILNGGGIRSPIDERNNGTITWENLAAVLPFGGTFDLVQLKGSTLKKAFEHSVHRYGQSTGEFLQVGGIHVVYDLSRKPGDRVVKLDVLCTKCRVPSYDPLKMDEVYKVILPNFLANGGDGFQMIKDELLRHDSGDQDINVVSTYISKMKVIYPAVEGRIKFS


Key:
[1] = target: T1, human CD73 expressed at the cell surface; assay: cell-based or functional assay
[2] = target: T2, recombinant human CD73-His …; assay: cell-based or functional assay
[3] = target: T4, cynomolgus CD73 expressed on recombinant host cells (cynomolgus); assay: flow cytometry titration on cynomolgus CD73-expressing recombinant host cells, PE secondary, median of fluorescence
T4 construct: whole, on cells; also called cynoCD73

[4] = target: T1, human CD73 expressed at the cell surface; assay: flow cytometry titration on human CD73-expressing recombinant host cells, PE secondary, median of fluorescence
Procedure: MDA-MB-231 cells are available from ATCC (reference HTB-26). 10⁵ cells resuspended in PBS/0.2% BSA/0.02% NaN3 (named “staining buffer”) are distributed into round bottom 96W-microplates. Dose-range of anti-CD73 antibodies was added to the plates and cells are incubated for 45 min at 4° C. Cells were washed three times in staining buffer by spinning plates at 400 g for 3 min at 4° C. PE-coupled goat anti-mouse or goat anti-human IgG Fc fragment secondary antibodies (Beckman Coulter) diluted in staining buffer were added to the cells and plates are incubated for 30 additional minutes at 4° C. Cells were washed three times as described above and analyzed on an Accury C6 flow cytometer equipped with an HTFC plate reader.
Median of fluorescence vs. antibodies concentration was plotted on graphs and EC50 is calculated using GraphPad Prism program.

[5] = target: T1, human CD73 expressed at the cell surface; assay: cell-based or functional assay; remark: listed apart in the source
human CD73 mutant 3 = target: T3, human CD73 mutant 3; assay: flow cytometry on transfected HEK293T cells
Procedure: CD73 mutants are generated by PCR. The sequences amplified are run on agarose gel and purified using the Macherey Nagel PCR Clean-Up Gel Extraction kit (reference 740609). The purified PCR products generated for each mutant are then ligated into an expression vector, with the ClonTech InFusion system. The vectors containing the mutated sequences are prepared as Miniprep and sequenced. After sequencing, the vectors containing the mutated sequences are prepared as Midiprep using the Promega PureYield™ Plasmid Midiprep System. HEK293T cells are grown in DMEM medium (Invitrogen), transfected with vectors using Invitrogen's Lipofectamine 2000 and incubated at 37° C. in a CO2 incubator for 24 hours prior to testing for transgene expression
Anti-CD73 antibodies are tested for their binding to each mutant by flow cytometry. A first experiment is performed to determine antibodies that lose their binding to one or several mutants at one concentration. To confirm a loss of binding, titration of antibodies is done on antibodies for which binding seemed to be affected by the CD73 mutations (1-0.1-0.01-0.001 μg/ml). Antibodies 11E1, 8C7, 3C12 or 6E1 lost binding to mutant 3 of CD73, but not to any other mutant. […] Antibody 7G2 lost binding to mutants 5, 6 and 7 (but not mutants 2 or 3).

Row | Binder | EC50 for neutralization of enzymatic activity of cellular CD73 (MDA-MB-231, free phosphate from AMP) [1] | EC50 for CD73 blockade (enzymatic activity of soluble recombinant CD73-his, Cell Titer Glo) [2] | EC50 (read off the curve) [3] | EC50 (read off the curve) [4] | EC50 for neutralization of cellular CD73 enzymatic activity (mean over MDA-MB-231, H292, A375) [5] | EC70 for neutralization of cellular CD73 enzymatic activity (mean over MDA-MB-231, H292, A375) [5] | EC100 for neutralization of cellular CD73 enzymatic activity (mean over MDA-MB-231, H292, A375) [5] | binding result (human CD73 mutant 3)
1 | antibody 11E1 (antibody, human IgG1, V domains shown, also called 1E11) VH: EIQLQQSGPELVKPGASVKVSCKASGYAFTSYNMYWVKQSHGKSLEWIGYIDPYNGGTSYNQKFKGKATLTVDKSSSTAYMHLNSLTSEDSAVYYCARGYGNYKAWFAYWGQGTLVTVSA VL: DAVMTQTPKFLLVSAGDRVTITCKASQSVTNDVAWYQQKPGQSPKLLIYYASNRYTGVPDRFTGSGYGTDFTFTISTVQAEDLAVYFCQQDYSSLTFGAGTKLELK | 0.195 µg/mL | 0.41 µg/mL | ~0.5 µg/mL | ~0.5 µg/mL | 0.1 µg/mL | 0.15 µg/mL | 0.52 µg/mL | –
2 | antibody 8C7 (antibody, human IgG1, V domains shown) VH: EVQLQQSGPELVKPGASVKVSCKASGYAFASYNMNWVKQSHGKSLDWIGYIDPYNGGSSYNLTFKGKATLTVDKSSTTAYMHLNSLTSEDSAVYYCARGYGNYKAWFAYWGQGTLVTVSA VL: SIVMTPTPKFLLVSAGDRVTITCKASQSVSNDVAWYQQKPGQSPKLLIYYASTRYTGVPDRFTGSGYGTDFTFTISTVQAEDLAVYFCQQDYSSLTFGAGTKLELKR | 0.319 µg/mL | 1.29 µg/mL | – | – | 0.21 µg/mL | 0.46 µg/mL | 0.72 µg/mL | no binding (tested: 1-0.1-0.01-0.001 µg/ml)

Continued, in another order:

Row | EC50 for neutralization of enzymatic activity of cellular CD73 (MDA-MB-231, free phosphate from AMP) [1] | EC50 for CD73 blockade (enzymatic activity of soluble recombinant CD73-his, Cell Titer Glo) [2] | EC50 (read off the curve) [3] | EC50 (read off the curve) [4] | EC50 for neutralization of cellular CD73 enzymatic activity (mean over MDA-MB-231, H292, A375) [5] | EC70 for neutralization of cellular CD73 enzymatic activity (mean over MDA-MB-231, H292, A375) [5] | EC100 for neutralization of cellular CD73 enzymatic activity (mean over MDA-MB-231, H292, A375) [5] | Binder | binding result (human CD73 mutant 3)
3 | 0.21 µg/mL | 0.41 µg/mL | – | – | 0.14 µg/mL | 0.18 µg/mL | 0.3 µg/mL | antibody 3C12 (antibody, human IgG1, V domains shown) VH: QIQLQQSGPELVKPGASVKVSCKASGYAFASYNMNWVKQSHGKSLDWIGYIDPYNGGSSYNLTFKGKATLTVDKSSTTAYMHLNSLTSEDSAVYYCARGYGNYKAWFAYWGQGTLVTVSA VL: DVVMTQTPKFLLVSAGDRVTITCKASQSVSNDVAWYQQKPGQSPKLLIYYASTRYTGVPDRFTGSGYGTDFTFTISTVQAEDLAVYFCQQDYSSLTFGAGTKLELKR | –
4 | 0.209 µg/mL | 0.33 µg/mL | – | ~0.5 µg/mL | 0.13 µg/mL | 0.19 µg/mL | 0.68 µg/mL | antibody 6E1 (antibody, human IgG1, V domains shown) VH: EFQLQQSGPELVKPGASVKVSCKASGYAFTSYNMYWVKQSHGKRLEWIGYIDPYNGGSSYNQKFKGKATLTVDKSSSTAYMHLNNLTSEDSAVYYCARGYNNYKAWFAYWGQGTLVTVSA VL: SIVMTQTPKFLLVSAGDRVTITCKASQSVTNDVAWYQQKPGQSPKLLIYYASNRYTGVPDRFTGSGYGTDFTFTISTMQAEDLAVYFCQQDYSSLTFGAGTKLELK | –
